For data set [1], the system named is hMPV F protein of rhMPV/NL/1/00/101P (RQPR cleavage motif).
Data set [2] concerns hMPV F protein of rhMPV/NL/1/99/101S (subtype B1).
In data set [3] the test system is hMPV F protein of rhMPV/NL/1/00/101S (RQSR cleavage motif).

On to TPCK trypsin (Sigma), for which the “cleavage of vectored hMPV F (b/h PIV3), Western blot” value in data set [1] was “In the presence of trypsin, the vectored F proteins of both hMPV/NL/1/00/101P and hMPV/NL/1/00/101S were partially cleaved to the same extent as the F protein expressed from the wt hMPV/NL/1/00”; in data set [3], “In the presence of trypsin, the vectored F proteins of both hMPV/NL/1/00/101P and hMPV/NL/1/00/101S were partially cleaved to the same extent as the F protein expressed from the wt hMPV/NL/1/00”. Besides, the “cleavage of hMPV F (F0 to F1), Western blot” value is given as “hMPV F/101S showed no cleavage in the absence of trypsin, but in the presence of trypsin, the F1 fragment was readily detected” in data set [2] and “hMPV F containing 101S was cleaved only when the protein was exposed to trypsin” in data set [3].
